Laboratory results from patent US20230279059A1 (VIB VZW, published 2023).

B1: recombinant Ena1B with N-terminal 6xHis tag and TEV cleavage site (other)
chain: MHHHHHHSSGENLYFQGNCSTNLSCCANGQKTIVQDKVCIDWTAAATAAIIYADNISQDIYASGYLKVDTGTGPVTIVFYSGGVTGTAVETIVVATGSSASFTVRRFDTVTILGTAAAETGEFCMTIRYTLS
B2: Bacillus cereus NVH 0075-95 Endospore appendage (Ena) 1B, wild type (other)
chain: MGNCSTNLSCCANGQKTIVQDKVCIDWTAAATAAIIYADNISQDIYASGYLKVDTGTGPVTIVFYSGGVTGTAVETIVVATGSSASFTVRRFDTVTILGTAAAETGEFCMTIRYTLS
notes: also called WT Ena1B; WT recEna1B

Tests used:
[1] = target: the molecule itself; test: self-assembly after refolding from 8M urea, negative stain TEM
[2] = target: the molecule itself; test: self-assembly of tag-free protein in the E. coli cytoplasm, negative stain TEM
[3] = target: the molecule itself; test: expression in E. coli, ns-TEM
[4] = target: the molecule itself; test: expression in E. coli, nsTEM
[5] = target: the molecule itself; test: self-assembly after TEV cleavage of the His-tag, TEM
[6] = target: B1; test: epitaxial growth on maleimide magnetic beads carrying 6×His_TEV_Ena1B multimers, nsTEM
[7] = target: T1, split-BC Ena1B, C-terminal part (strands CDEFGHI) (Bacillus cereus NVH 0075-95); test: co-expression of the two halves in E. coli, NS-TEM
T1 construct: also called split BC construct, C-terminal half
T1 chain: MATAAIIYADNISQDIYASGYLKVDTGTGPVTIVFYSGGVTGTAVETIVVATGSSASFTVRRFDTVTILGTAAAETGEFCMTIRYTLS

[8] = target: the molecule itself; test: in vitro self-assembly after TEV cleavage, cryo-EM
[9] = target: the molecule itself; test: in vitro self-assembly after TEV cleavage, NS-TEM and cryo-EM
[10] = target: the molecule itself; test: self-assembly in the E. coli cytoplasm, NS-TEM
[11] = target: the molecule itself; test: self-assembly after refolding by dialysis, EM
[12] = target: B2; test: immunogold TEM and cryoEM of ex vivo S-type Enas; both subunits within single fibers

## B1
[1]
  binding result: binds

## B2
[2]
  binding result: binds

B3: recEna1BΔNtc (deletion of residues 2-15 of WT Ena1B) (other)
chain: MKTIVQDKVCIDWTAAATAAIIYADNISQDIYASGYLKVDTGTGPVTIVFYSGGVTGTAVETIVVATGSSASFTVRRFDTVTILGTAAAETGEFCMTIRYTLS
[3]
  binding result: binds

B4: Ena1B-HI-HA insertion variant (other)
chain: MGNCSTNLSCCANGQKTIVQDKVCIDWTAAATAAIIYADNISQDIYASGYLKVDTGTGPVTIVFYSGGVTGTAVETIVVATGSSASFTVRRFDTVTILGGSYPYDVPDYAGSAAETGEFCMTIRYTLS
[4]
  binding result: binds

B5: recEna1B after removal of the N-terminal 6xHis tag by TEV protease (other)
chain: GNCSTNLSCCANGQKTIVQDKVCIDWTAAATAAIIYADNISQDIYASGYLKVDTGTGPVTIVFYSGGVTGTAVETIVVATGSSASFTVRRFDTVTILGTAAAETGEFCMTIRYTLS
notes: also called in vitro Ena1B fibers; recENA1B (PDB7A02)
[5]
  binding result: binds
[6]
  binding result: binds

B6: M-TEV-Ena1B (M-[…]-Ena1B), steric block of 6 amino acids (other)
chain: MENLYFQGNCSTNLSCCANGQKTIVQDKVCIDWTAAATAAIIYADNISQDIYASGYLKVDTGTGPVTIVFYSGGVTGTAVETIVVATGSSASFTVRRFDTVTILGTAAAETGEFCMTIRYTLS
notes: also called M-TEV-Ena1B (N=6)
[3]
  binding result: binds

B7: split-BC Ena1B, N-terminal part (strands AB) (other)
chain: MGNCSTNLSCCANGQKTIVQDKVCIDWTAA
notes: also called split BC construct, N-terminal half
[7]
  binding result: binds

B8: Ena1B-DE-Flag insertion variant (other)
chain: MGNCSTNLSCCANGQKTIVQDKVCIDWTAAATAAIIYADNISQDIYASGYLKVDTGSDYKDDDDKGSGPVTIVFYSGGVTGTAVETIVVATGSSASFTVRRFDTVTILGTAAAETGEFCMTIRYTLS
[4]
  binding result: binds

B9: M-His6-SSG-Ena1B, steric block of 9 amino acids (other)
chain: MHHHHHHSSGGNCSTNLSCCANGQKTIVQDKVCIDWTAAATAAIIYADNISQDIYASGYLKVDTGTGPVTIVFYSGGVTGTAVETIVVATGSSASFTVRRFDTVTILGTAAAETGEFCMTIRYTLS
[3]
  binding result: binds

B10: Ena2C after removal of the 6×His-TEV blocker by TEV protease (other)
chain: MKNKKNIGCFAPLSIICPDPCPPPPPPNPNCERVTNEFAGNFLITNNTIPSAKDASQSMILWQSDGILLISGTVSVYNSTSSTETITIQIVGTVTNIFTVFPGNTISYTGKDLHSVSIINITSNPSLYLEGKYCCEFTCCL
notes: also called short L-like Ena2C filaments
[8]
  binding result: binds

B11: Ena2A after removal of the 6×His-TEV blocker by TEV protease (other)
chain: MSCECSGSALTCCPDKNYVQDKVCSPWSATVVATAIDNVLYTNNINQNVVGTGFVKYDVGPGPITVEALDSAGGTIDTQTLNPGTSIAFTYRRFDSIQVVLPATPAGTYQGEFCITTRYPLS
notes: also called in vitro assembled Ena2A filament
[9]
  binding result: binds

B12: Ena2A without steric block (other)
chain: MSCECSGSALTCCPDKNYVQDKVCSPWSATVVATAIDNVLYTNNINQNVVGTGFVKYDVGPGPITVEALDSAGGTIDTQTLNPGTSIAFTYRRFDSIQVVLPATPAGTYQGEFCITTRYPLS
notes: also called WP_001277540.1
[10]
  binding result: binds

B13: recombinant Ena1C with N-terminal 6xHis tag and TEV cleavage site (other)
chain: MHHHHHHSSGENLYFQGKPHKNIGCFAPLSIICQPTCPCPPPILPPERGDAELVTNEFAGDILISNDFIPISQKQLKQTNTTVNIWKNDGIVSLSGTISIYNNRNSTNALSIQIISSTTNTFTALPGNTISYTGFDLQSVSVIDIPSDPSIYIEGRYCFQLTYCKSKRDCL
notes: also called recEna1C; WP_000802321
[11]
  binding result: binds

B14: Bacillus cereus NVH 0075-95 Endospore appendage (Ena) 1A, wild type (other)
chain: MACECSSTVLTCCSDNSSNFVQDKVCNPWSSAEASTFTVYANNVNQNIVGTGYLTYDVGPGVSPANQITVTVLDSGGGTIQTFLVNEGTSISFTFRRFNIIQITTPATPIGTYQGEFCITTRYLMA
notes: also called KMP91697.1; WP_000742049.1
[2]
  binding result: binds
[12]
  binding result: binds
